Measurements from US20150141489.

Biological target: recombinant GST-S6 (UniProt P62753)

Substance: T7-tagged mouse S6K1 Isoform-2 (Iso-2)
- in vitro kinase assay (phospho-S6 S240-244 blot): have no kinase activity
